Assay results as given in PMC9287376 (Nature Communications, 2022).

B1: wild-type trigger factor (natural protein)
chain: MQVSVETTQGLGRRVTITIAADSIETAVKSELVNVAKKVRIDGFRKGKVPMNIVAQRYGASVRQDVLGDLMSRNFIDAIIKEKINPAGAPTYVPGEYKLGEDFTYSVEFEVYPEVELQGLEAIEVEKPIVEVTDADVDGMLDTLRKQQATWKEKDGAVEAEDRVTIDFTGSVDGEEFEGGKASDFVLAMGQGRMIPGFEDGIKGHKAGEEFTIDVTFPEEYHAENLKGKAAKFAINLKKVEERELPELTAEFIKRFGVEDGSVEGLRAEVRKNMERELKSAIRNRVKSQAIEGLVKANDIDVPAALIDSEIDVLRRQAAQRFGGNEKQALELPRELFEEQAKRRVVVGLLLGEVIRTNELKADEERVKGLIEEMASAYEDPKEVIEFYSKNKELMDNMRNVALEEQAVEAVLAKAKVTEKETTFNELMNQQA
notes: trigger factor, a bacterial ATP-independent chaperone; results are mapped onto the crystal structure pdb 1w26; Monomer-dimer equilibrium; predominantly monomeric under the conditions used (low uM, 0.26 M GdnHCl); also called TF; source: E. coli BL21 (DE3), purified (Ni-His Trap, ULP1 cleavage, HiTrap Q, Superdex 75); not shown: His-Sumo, N-terminal, cleaved
B2: Fluorescein-5-maleimide-labelled trigger factor E326C (natural protein)
chain: MQVSVETTQGLGRRVTITIAADSIETAVKSELVNVAKKVRIDGFRKGKVPMNIVAQRYGASVRQDVLGDLMSRNFIDAIIKEKINPAGAPTYVPGEYKLGEDFTYSVEFEVYPEVELQGLEAIEVEKPIVEVTDADVDGMLDTLRKQQATWKEKDGAVEAEDRVTIDFTGSVDGEEFEGGKASDFVLAMGQGRMIPGFEDGIKGHKAGEEFTIDVTFPEEYHAENLKGKAAKFAINLKKVEERELPELTAEFIKRFGVEDGSVEGLRAEVRKNMERELKSAIRNRVKSQAIEGLVKANDIDVPAALIDSEIDVLRRQAAQRFGGNCKQALELPRELFEEQAKRRVVVGLLLGEVIRTNELKADEERVKGLIEEMASAYEDPKEVIEFYSKNKELMDNMRNVALEEQAVEAVLAKAKVTEKETTFNELMNQQA
modifications: fluorescein-5-maleimide on the cysteine of E326C
notes: Labelling efficiency typically above 92%; also called fluorescently labelling trigger factor; source: E. coli BL21 (DE3), purified (Ni-His Trap, ULP1 cleavage, HiTrap Q, Superdex 75), labelled with fluorescein-5-maleimide; not shown: His-Sumo, N-terminal, cleaved
B4: refolding glyceraldehyde 3-phosphate dehydrogenase (rabbit GAPDH, GdnHCl-denatured and diluted into refolding buffer) (enzyme)
chain: not shown
notes: glyceraldehyde 3-phosphate dehydrogenase, rabbit (rabbit-muscle GAPDH, pdb 1J0X); Native GAPDH is a tetramer; The protein from tissue likely lacks the initiator methionine (surmise); also called rGAPDH; source: bought: Sigma-Aldrich (G2267), purified rabbit GAPDH; denatured in 3 M GdnHCl and diluted into buffer A

Assays:
[1] = biological target: T1, refolding Vibrio harveyi luciferase (urea-denatured and diluted into refolding buffer) (Vibrio harveyi, UniProt P07740 1-355; P07739 1-324); assay: AUC; sedimentation velocity; 2 μM refolding luciferase alone or with 16 μM trigger factor; buffer A with 0.1 M urea, 4 °C, 35,000 r.p.m.; details: both partners purified
T1 construct: alpha subunit of the heterodimeric flavin monooxygenase luciferase of Vibrio harveyi; beta subunit of the heterodimeric flavin monooxygenase luciferase of Vibrio harveyi; In the assays the heterodimer was urea-denatured; also called luciferase subunits; source: E. coli (pET21b), purified (Ni-His Trap, Superdex 75); denatured in 5 M urea and diluted into buffer A; not shown: His tag (on the …)
T1 sequence (looked up) 1: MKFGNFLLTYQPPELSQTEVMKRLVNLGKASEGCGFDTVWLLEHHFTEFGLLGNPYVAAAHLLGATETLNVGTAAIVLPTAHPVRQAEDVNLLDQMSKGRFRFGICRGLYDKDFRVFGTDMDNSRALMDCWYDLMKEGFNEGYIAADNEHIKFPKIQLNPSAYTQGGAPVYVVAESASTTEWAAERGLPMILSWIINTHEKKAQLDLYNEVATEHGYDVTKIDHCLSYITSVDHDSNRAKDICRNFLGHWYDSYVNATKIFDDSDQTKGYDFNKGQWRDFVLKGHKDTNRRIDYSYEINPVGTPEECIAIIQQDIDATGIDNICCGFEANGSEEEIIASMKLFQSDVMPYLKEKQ
T1 sequence (looked up) 2: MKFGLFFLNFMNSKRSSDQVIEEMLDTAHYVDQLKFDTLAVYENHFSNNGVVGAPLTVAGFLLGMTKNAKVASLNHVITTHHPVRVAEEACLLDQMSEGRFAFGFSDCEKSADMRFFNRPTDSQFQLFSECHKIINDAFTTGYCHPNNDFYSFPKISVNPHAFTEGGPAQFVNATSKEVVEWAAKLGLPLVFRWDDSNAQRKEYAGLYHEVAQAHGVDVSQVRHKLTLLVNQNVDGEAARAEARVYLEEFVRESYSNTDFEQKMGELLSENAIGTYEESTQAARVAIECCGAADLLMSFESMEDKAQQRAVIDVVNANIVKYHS

[2] = biological target: B4; assay: AUC; sedimentation velocity; 5 μM refolding GAPDH alone or with 15 μM trigger factor; buffer A (0.1 M potassium phosphate pH 7.5, 0.1 M KCl, 1 mM TCEP) with 0.26 M GdnHCl, 4 °C, 40,000 r.p.m.; details: both partners purified
[3] = biological target: T1, refolding Vibrio harveyi luciferase …; assay: fluorescence polarisation; anisotropy titration; 0.5 μM fluorescein-labelled trigger factor E326C titrated with urea-denatured luciferase; buffer A, 25 °C; hyperbola fit; apparent; details: both partners purified
[4] = biological target: B1; assay: fluorescence polarisation; stopped-flow anisotropy; 0.13 μM labelled denatured GAPDH mixed with 0.13–3.24 μM trigger factor; 0.1 M potassium phosphate pH 7.6, 0.1 M KCl, 1 mM TCEP, 0.26 M GdnHCl, 4 °C; linear fit of kobs against trigger factor concentration; details: both partners purified
[5] = biological target: B2; assay: fluorescence polarisation; anisotropy titration; 0.5 μM fluorescein-labelled trigger factor E326C titrated with GdnHCl-denatured GAPDH; buffer A, 4 °C; quadratic fit; apparent; details: both partners purified
[6] = biological target: the molecule itself; assay: AUC; sedimentation velocity; 5 μM refolding GAPDH alone or with 15 μM trigger factor; buffer A (0.1 M potassium phosphate pH 7.5, 0.1 M KCl, 1 mM TCEP) with 0.26 M GdnHCl, 4 °C, 40,000 r.p.m.
[7] = biological target: B1; assay: cross-linking; XL-MS; 6 μM denatured GAPDH diluted into buffer A with equimolar trigger factor (0.26 M GdnHCl), 2 h on ice, then 2 mM disuccinimidyl dibutyric urea 2 h on ice; SDS–PAGE and LC–MS; details: both partners purified

## B1
[1]
  stoichiometry N: 1
[2]
  stoichiometry N: 1

## B2
[3]
  Kd: 4500 nM

B3: Alexa Fluor 488-labelled GAPDH (enzyme)
chain: not shown
modifications: CF Fluor 488 A maleimide (called Alexa Fluor 488) on cysteine; the paper says only Cys 149 is solvent-exposed in the native tetramer
notes: glyceraldehyde 3-phosphate dehydrogenase, rabbit; Labelling efficiency typically above 98%; also called fluorophore labelled GAPDH; source: bought: Sigma-Aldrich (G2267), labelled with CF Fluor 488A maleimide, denatured in GdnHCl
[4]
  koff: 8.7 s⁻¹
  kon: 6.6e+06 M⁻¹ s⁻¹

## B4
[5]
  Kd: 320 nM
[6]
  binding result: binds
[7]
  binding result: binds
